Experimental data: US20120165204A1 (UNIVERSITY OF NORTH CAROLINA AT CHAPEL HILL, published 2012)

Target: T1, 546-4 T17N (LOV2 carries non-covalent FMN; the Rac1 C-terminal CAAX box may be prenylated and trimmed in cells)
T1 construct: only the lane label names it
Test: pull-down (CoIP) with FLAG-tagged PAK1 co-expressed in HEK 293 cells, FLAG/M2-agarose, in the dark; Western blot
Procedure: The cells were lysed in 50 mM Tris pH 7.5, 150 mM NaCl, and 1% Triton X-100 (lysis buffer) with addition of EDTA-free protease inhibitor cocktail (Roche). After brief centrifugation, the supernatants were incubated with FLAG/M2-agarose (Sigma) followed by washes with lysis buffer, and elution with lysis buffer containing 200 μg/ml 3× FLAG peptide (Sigma). All procedures were done at 4° C. under red light, facilitated using Handee spin columns (Pierce).

B1: FLAG-tagged PAK1 (enzyme, UniProt Q13153 1-545, looked up)
chain: MSNNGLDIQDKPPAPPMRNTSTMIGAGSKDAGTLNHGSKPLPPNPEEKKKKDRFYRSILPGDKTNKKKEKERPEISLPSDFEHTIHVGFDAVTGEFTGMPEQWARLLQTSNITKSEQKKNPQAVLDVLEFYNSKKTSNSQKYMSFTDKSAEDYNSSNALNVKAVSETPAVPPVSEDEDDDDDDATPPPVIAPRPEHTKSVYTRSVIEPLPVTPTRDVATSPISPTENNTTPPDALTRNTEKQKKKPKMSDEEILEKLRSIVSVGDPKKKYTRFEKIGQGASGTVYTAMDVATGQEVAIKQMNLQQQPKKELIINEILVMRENKNPNIVNYLDSYLVGDELWVVMEYLAGGSLTDVVTETCMDEGQIAAVCRECLQALEFLHSNQVIHRDIKSDNILLGMDGSVKLTDFGFCAQITPEQSKRSTMVGTPYWMAPEVVTRKAYGPKVDIWSLGIMAIEMIEGEPPYLNENPLRALYLIATNGTPELQNPEKLSAIFRDFLNRCLEMDVEKRGSAKELLQHQFLKIAKPLSSLTPLIAAAKEATKNNH
notes: Bait of the pull-down assays (FLAG/M2-agarose); not shown: FLAG tag
- binding result: no binding
